Experimental data as given in article PMC12021450.

Key:
[1] = target: Trypanosoma brucei MSC-associated protein 1 (MCP1), wild type, His6-tagged (Trypanosoma brucei); assay: mass photometry; 50 nM protein with 25 nM tRNA^Ala (complex formed at 2 uM protein : 1 uM tRNA^Ala, room temperature, 10 min) in 50 mM HEPES-KOH pH 7.6, 50 mM NaCl, 2 mM MgCl2, 0.5 mM TCEP; monomer to dimer
[2] = target: Trypanosoma brucei MSC-associated protein 1 (MCP1), wild type, His6-tagged (Trypanosoma brucei); assay: mass photometry; protein alone, 50 nM final in 50 mM HEPES-KOH pH 7.6, 50 mM NaCl, 2 mM MgCl2, 0.5 mM TCEP; pre-incubated at 2 uM at room temperature for 10 min; no tRNA; monomer to dimer

- percent of the species in the dimer peak, with tRNA^Ala [1]: 31%
- stoichiometry N [1]: 2
- percent of the protein population that is dimeric [2]: 17%
- stoichiometry N [2]: 2
Substance: Trypanosoma brucei MSC-associated protein 1 (MCP1), wild type, His6-tagged (natural protein)
